Source: paper PMC9482650, “Quantitative fragmentomics allow affinity mapping of interactomes” (Nature Communications, 2022)
Residue numbers refer to the chain shown, from its start. Blank lines part the entries; values can stand above or below the binder they belong to.

Assays:
Experiment in all cases: holdup assay
Parameters in all cases: key: below the threshold = too weak to quantify, mostly under pKd 3.1 to 4
APBA1_2, Q02410 = target: T1, APBA1_2, Q02410
T1 sequence (Q02410 742-832, limits assumed, looked up): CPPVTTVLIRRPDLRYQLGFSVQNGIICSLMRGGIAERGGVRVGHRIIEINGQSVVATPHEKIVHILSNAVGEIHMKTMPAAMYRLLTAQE

APBA2_1, Q99767 = target: T2, APBA2_1, Q99767
T2 sequence (Q99767 563-664, limits assumed, looked up): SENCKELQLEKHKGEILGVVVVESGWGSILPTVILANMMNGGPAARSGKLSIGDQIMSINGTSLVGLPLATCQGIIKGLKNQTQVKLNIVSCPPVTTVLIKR

APBA2_2, Q99767 = target: T3, APBA2_2, Q99767
T3 sequence (Q99767 654-744, limits assumed, looked up): T1 sequence (Q02410 742-832, limits assumed, looked up) with R10K, R15K, P59A, H65Q, I66A, A70S, Y84F, A89G

DLG3_2, Q92796 = target: T4, DLG3_2, Q92796
T4 sequence (Q92796 221-321, limits assumed, looked up): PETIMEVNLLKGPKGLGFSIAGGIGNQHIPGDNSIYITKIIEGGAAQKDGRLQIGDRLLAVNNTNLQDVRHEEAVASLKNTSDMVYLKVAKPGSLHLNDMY

DLG4_1, P78352 = target: DLG4_1, P78352
DLG4_1, P78352, sequence (P78352 62-152): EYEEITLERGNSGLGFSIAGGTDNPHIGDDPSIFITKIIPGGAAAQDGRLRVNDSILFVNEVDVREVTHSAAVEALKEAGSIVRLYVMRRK

FRMPD1, Q5SYB0 = target: T5, FRMPD1, Q5SYB0
T5 sequence (Q5SYB0 52-145, limits assumed, looked up): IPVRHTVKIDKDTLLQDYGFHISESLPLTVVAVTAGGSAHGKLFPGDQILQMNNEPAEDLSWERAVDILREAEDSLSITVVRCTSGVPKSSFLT

FRMPD3, Q5JV73 = target: FRMPD3, Q5JV73
FRMPD3, Q5JV73, sequence (Q5JV73 12-100): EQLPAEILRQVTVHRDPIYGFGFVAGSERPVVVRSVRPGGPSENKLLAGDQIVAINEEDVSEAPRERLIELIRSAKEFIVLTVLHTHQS

GRIP1_5, Q9Y3R0 = target: T6, GRIP1_5, Q9Y3R0
T6 sequence (Q9Y3R0 568-668, limits assumed, looked up): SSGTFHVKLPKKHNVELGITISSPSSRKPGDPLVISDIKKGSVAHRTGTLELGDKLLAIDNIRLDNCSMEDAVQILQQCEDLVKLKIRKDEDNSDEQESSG

GRIP2_5, Q9C0E4 = target: GRIP2_5, Q9C0E4
GRIP2_5, Q9C0E4, sequence (Q9C0E4 544-642): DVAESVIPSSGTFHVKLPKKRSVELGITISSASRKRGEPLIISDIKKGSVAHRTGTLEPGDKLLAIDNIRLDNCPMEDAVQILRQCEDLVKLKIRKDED

Inadl_6, Q8NI35 = target: Inadl_6, Q8NI35
Inadl_6, Q8NI35, sequence (Q8NI35 1058-1167): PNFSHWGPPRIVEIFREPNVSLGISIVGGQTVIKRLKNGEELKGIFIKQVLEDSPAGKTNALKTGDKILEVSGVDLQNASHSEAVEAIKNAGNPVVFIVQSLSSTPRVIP

LNX1_2, Q8TBB1 = target: LNX1_2, Q8TBB1
LNX1_2, Q8TBB1, sequence (Q8TBB1 371-470): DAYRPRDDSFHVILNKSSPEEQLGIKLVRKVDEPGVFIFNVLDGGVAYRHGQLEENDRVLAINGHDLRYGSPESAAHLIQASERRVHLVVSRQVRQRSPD

LNX2_2, Q8N448 = target: T7, LNX2_2, Q8N448
T7 sequence (Q8N448 334-432, limits assumed, looked up): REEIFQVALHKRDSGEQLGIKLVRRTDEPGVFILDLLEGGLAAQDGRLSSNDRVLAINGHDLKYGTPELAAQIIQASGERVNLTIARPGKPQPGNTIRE

LRRC7, Q96NW7 = target: T8, LRRC7, Q96NW7
T8 sequence (Q96NW7 1440-1537, limits assumed, looked up): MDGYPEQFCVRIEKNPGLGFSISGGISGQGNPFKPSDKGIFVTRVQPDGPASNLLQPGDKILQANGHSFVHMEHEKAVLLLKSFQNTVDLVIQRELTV

MAGI2_4, Q86UL8 = target: MAGI2_4, Q86UL8
MAGI2_4, Q86UL8, sequence (Q86UL8 772-865): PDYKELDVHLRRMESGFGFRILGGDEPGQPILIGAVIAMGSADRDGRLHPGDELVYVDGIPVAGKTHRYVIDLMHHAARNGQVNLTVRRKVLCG

MAGI2_5, Q86UL8 = target: MAGI2_5, Q86UL8
MAGI2_5, Q86UL8, sequence (Q86UL8 915-1017): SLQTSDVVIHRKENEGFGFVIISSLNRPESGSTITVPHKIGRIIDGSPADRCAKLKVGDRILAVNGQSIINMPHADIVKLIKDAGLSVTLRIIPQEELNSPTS

MAST2, Q6P0Q8 = target: MAST2, Q6P0Q8
MAST2, Q6P0Q8, sequence (Q6P0Q8 1099-1202): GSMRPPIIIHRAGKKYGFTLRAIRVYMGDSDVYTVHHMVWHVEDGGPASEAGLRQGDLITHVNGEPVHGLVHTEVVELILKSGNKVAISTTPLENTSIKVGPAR

MPP2, Q14168 = target: T9, MPP2, Q14168
T9 sequence (Q14168 180-250, limits assumed, looked up): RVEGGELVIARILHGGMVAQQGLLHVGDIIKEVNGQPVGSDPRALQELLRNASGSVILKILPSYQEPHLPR

NHERF3_4, Q5T2W1 = target: T10, NHERF3_4, Q5T2W1
T10 sequence (Q5T2W1 373-468, limits assumed, looked up): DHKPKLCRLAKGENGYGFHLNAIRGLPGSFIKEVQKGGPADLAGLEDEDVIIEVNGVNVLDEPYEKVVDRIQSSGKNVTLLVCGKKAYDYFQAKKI

NOS1, P29475 = target: NOS1, P29475
NOS1, P29475, sequence (P29475 9-101): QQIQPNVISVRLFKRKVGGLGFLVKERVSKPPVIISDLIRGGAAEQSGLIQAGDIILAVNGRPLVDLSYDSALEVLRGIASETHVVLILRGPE

PDLIM1, O00151 = target: PDLIM1, O00151
PDLIM1, O00151, sequence (O00151 1-87): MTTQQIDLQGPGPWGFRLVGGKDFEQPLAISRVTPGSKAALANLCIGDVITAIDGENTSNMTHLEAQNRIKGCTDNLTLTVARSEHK

RADIL, Q96JH8 = target: T11, RADIL, Q96JH8
T11 sequence (Q96JH8 971-1071, limits assumed, looked up): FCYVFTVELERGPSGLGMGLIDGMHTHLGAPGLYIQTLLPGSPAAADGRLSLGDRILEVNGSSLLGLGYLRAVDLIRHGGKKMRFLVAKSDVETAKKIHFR

SCRIB_3, Q14160 = target: SCRIB_3, Q14160
SCRIB_3, Q14160, sequence (Q14160 999-1103): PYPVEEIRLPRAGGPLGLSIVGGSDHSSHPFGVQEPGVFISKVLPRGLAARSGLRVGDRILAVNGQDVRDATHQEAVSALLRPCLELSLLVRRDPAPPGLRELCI

SIPA1L2, Q9P2F8 = target: T12, SIPA1L2, Q9P2F8
T12 sequence (Q9P2F8 945-1036, limits assumed, looked up): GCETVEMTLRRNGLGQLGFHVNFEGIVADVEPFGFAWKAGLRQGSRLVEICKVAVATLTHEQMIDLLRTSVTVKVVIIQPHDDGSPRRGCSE

TIAM2, Q8IVF5 = target: T13, TIAM2, Q8IVF5
T13 sequence (Q8IVF5 885-986, limits assumed, looked up): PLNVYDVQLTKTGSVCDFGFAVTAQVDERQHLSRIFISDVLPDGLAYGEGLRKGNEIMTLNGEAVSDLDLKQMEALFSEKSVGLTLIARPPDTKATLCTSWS

TJP1_2, Q07157 = target: TJP1_2, Q07157
TJP1_2, Q07157, sequence (Q07157 181-274): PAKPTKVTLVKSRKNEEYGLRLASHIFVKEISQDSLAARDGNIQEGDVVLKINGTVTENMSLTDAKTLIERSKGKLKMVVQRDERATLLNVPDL

[1] = plain residues with an end cap or a label only (N-terminal biotin on a linker: ado-ado)
[2] = plain residues with an end cap or a label only (N-terminal biotin on a linker: ahx)

- pKd (APBA1_2, Q02410; [1]): 3.9
- pKd (APBA2_1, Q99767; [1]): below the threshold
- pKd (APBA2_2, Q99767; [1]): below the threshold
- pKd (DLG3_2, Q92796; [1]): below the threshold
- pKd (DLG4_1, P78352; [1]): below the threshold
- pKd (FRMPD1, Q5SYB0; [1]): below the threshold
- pKd (FRMPD3, Q5JV73; [1]): below the threshold
- pKd (GRIP1_5, Q9Y3R0; [1]): below the threshold
- pKd (GRIP2_5, Q9C0E4; [1]): below the threshold
- pKd (Inadl_6, Q8NI35; [1]): below the threshold
- pKd (LNX1_2, Q8TBB1; [1]): below the threshold
- pKd (LNX2_2, Q8N448; [1]): 3.53
- pKd (LRRC7, Q96NW7; [1]): below the threshold
- pKd (MAGI2_4, Q86UL8; [1]): below the threshold
- pKd (MAGI2_5, Q86UL8; [1]): below the threshold
- pKd (MAST2, Q6P0Q8; [1]): 4.16
- pKd (MPP2, Q14168; [1]): below the threshold
- pKd (NHERF3_4, Q5T2W1; [1]): below the threshold
- pKd (NOS1, P29475; [1]): 4.16
- pKd (PDLIM1, O00151; [1]): below the threshold
- pKd (RADIL, Q96JH8; [1]): below the threshold
- pKd (SCRIB_3, Q14160; [1]): below the threshold
- pKd (SIPA1L2, Q9P2F8; [1]): below the threshold
- pKd (TIAM2, Q8IVF5; [1]): below the threshold
- pKd (TJP1_2, Q07157; [1]): below the threshold
Binder: TRKRSGEAAV [PFKM, P08237]

- pKd (APBA1_2, Q02410; [2]): below the threshold
- pKd (APBA2_1, Q99767; [2]): below the threshold
- pKd (APBA2_2, Q99767; [2]): below the threshold
- pKd (DLG3_2, Q92796; [2]): below the threshold
- pKd (DLG4_1, P78352; [2]): below the threshold
- pKd (FRMPD1, Q5SYB0; [2]): below the threshold
- pKd (FRMPD3, Q5JV73; [2]): 3.81
- pKd (GRIP1_5, Q9Y3R0; [2]): below the threshold
- pKd (GRIP2_5, Q9C0E4; [2]): below the threshold
- pKd (Inadl_6, Q8NI35; [2]): below the threshold
- pKd (LNX1_2, Q8TBB1; [2]): below the threshold
- pKd (LNX2_2, Q8N448; [2]): below the threshold
- pKd (LRRC7, Q96NW7; [2]): below the threshold
- pKd (MAGI2_4, Q86UL8; [2]): below the threshold
- pKd (MAGI2_5, Q86UL8; [2]): below the threshold
- pKd (MAST2, Q6P0Q8; [2]): below the threshold
- pKd (MPP2, Q14168; [2]): below the threshold
- pKd (NHERF3_4, Q5T2W1; [2]): below the threshold
- pKd (NOS1, P29475; [2]): below the threshold
- pKd (PDLIM1, O00151; [2]): below the threshold
- pKd (RADIL, Q96JH8; [2]): below the threshold
- pKd (SCRIB_3, Q14160; [2]): below the threshold
- pKd (SIPA1L2, Q9P2F8; [2]): below the threshold
- pKd (TIAM2, Q8IVF5; [2]): below the threshold
- pKd (TJP1_2, Q07157; [2]): below the threshold
Binder: EKQAKGDTEF [CACYBP, Q9HB71]

- pKd (APBA1_2, Q02410; [1]): 3.79
- pKd (APBA2_1, Q99767; [1]): 3.61
- pKd (APBA2_2, Q99767; [1]): below the threshold
- pKd (DLG3_2, Q92796; [1]): 4.22
- pKd (DLG4_1, P78352; [1]): below the threshold
- pKd (FRMPD1, Q5SYB0; [1]): below the threshold
- pKd (FRMPD3, Q5JV73; [1]): 4.07
- pKd (GRIP1_5, Q9Y3R0; [1]): below the threshold
- pKd (GRIP2_5, Q9C0E4; [1]): below the threshold
- pKd (Inadl_6, Q8NI35; [1]): 3.57
- pKd (LNX1_2, Q8TBB1; [1]): below the threshold
- pKd (LNX2_2, Q8N448; [1]): 3.7
- pKd (LRRC7, Q96NW7; [1]): below the threshold
- pKd (MAGI2_4, Q86UL8; [1]): 3.94
- pKd (MAGI2_5, Q86UL8; [1]): 3.51
- pKd (MAST2, Q6P0Q8; [1]): 4.32
- pKd (MPP2, Q14168; [1]): below the threshold
- pKd (NHERF3_4, Q5T2W1; [1]): below the threshold
- pKd (NOS1, P29475; [1]): 4
- pKd (PDLIM1, O00151; [1]): below the threshold
- pKd (RADIL, Q96JH8; [1]): 4.59
- pKd (SCRIB_3, Q14160; [1]): 3.96
- pKd (SIPA1L2, Q9P2F8; [1]): 3.54
- pKd (TIAM2, Q8IVF5; [1]): 4.16
- pKd (TJP1_2, Q07157; [1]): 4.2
Binder: SLNANEVEWF [RNF130, Q86XS8]
